Key:
Format in all cases: physicochemical
[1] = Structure and thermal stability (Tm) by circular dichroism; settings: 0.1 mg/ml; for Structure change: circular dichroism 190-250 nm, 20 mM sodium phosphate pH 5.5, 20° C., versus wild-type EGF; for Tm (melting temperature): circular dichroism, 20° C. to 95° C. at 1° C./min
Description: The structure and thermal stability of the purified EGF mutant were measured through a circular dichroism analysis using a J-810 spectrometer (JASCO). As the wild-type EGF, the purified EGF prepared in Example 2 was used. In order to analyze the structure, each EGF was dissolved in 20 mM sodium phosphate (pH 5.5) to be uniformly a final concentration of 0.1 mg/ml. And then, the dissolved EGF solution was added to 0.1 cm cell, and then its structure was analyzed under the conditions of, as 190 nm to 250 nm region, band width 1 nm, response 0.25 sec, data pitch 0.1 nm, scanning speed 20 nm/min, cell length 1 cm, accumulation 8 times, and a temperature of 20° C.
In order to analyze the thermal stability, a wavelength of 200 nm was determined through a comparison analysis of far-UV at the Tm (melting temperature) of 20° C. and 95° C., and progressed in a concentration of 0.1 mg/ml in 0.1 cm cell. As the conditions, it was measured at 20° C. to 95° C. under condition of 1° C./min.
The structure is changed at the band of about 195 nm when generating a folding-unfolding phenomenon. Using it, the melting temperature (Tm) was measured in the range of 20 to 95° C., and thus the accurate Tm value was analyzed. As a result, as for the structure change, most mutants had the similar structure as the wild-type EGF, and thus there were few changes. […] It can be confirmed that the thermal stabilities of M2 and M3 were improved by 87° C.

[2] = Circular dichroism after incubation at 60° C.; settings: 0.3 mg/ml, 20 mM sodium phosphate pH 5.5, 60° C., five days
Description: The stabilities of wild-type EGF and mutants should be confirmed through being stored at room temperature for a long period of time, but there is a disadvantage in that the time is too long. Therefore, the incubation test was performed at extreme environment for a short period of time. 0.3 mg/ml of each of the wild-type EGF and mutants was dissolved in 20 mM sodium phosphate (pH 5.5), and then subjected to the incubation in a water bath of 60° C. The sampling was performed per 24 hours unit, and then centrifuged at 13000 rpm and 4° C. for 15 minutes to collect the supernatant. The supernatant was diluted with 20 mM sodium phosphate (pH 5.5), and its structure was measured by using a circular dichroism. And then, the supernatant was added to 0.1 cm cell, and its structure was analyzed under the conditions of, in a region of 190 nm to 250 nm, band width 1 nm, response 0.25 sec, data pitch 0.1 nm, scanning speed 20 nm/min, cell length 1 cm, accumulation 8 times, a temperature of 20° C. […] In order to easily confirm such a result, the graph as illustrated in FIG. 3 is used using the ratio of the signal value at a first day to the signal value at 200 nm that has the biggest difference of signals. Table. […] From such a result, it can be confirmed that the EGF mutants prepared in the present invention have excellent thermal stability and solubility.

[3] = Solubility of wild-type and mutant EGFs in 20 mM sodium phosphate (pH 5.5)
Description: 1 mg of the respective wild-type and mutant EGFs prepared was dissolved in 1 ml of 20 mM sodium phosphate (pH 5.5 that is the similarly pH environment as cosmetics). In order to remove undissolved EGF, the mixture thus obtained was centrifuged and then supernatant was obtained. The concentration of the supernatant thus obtained was measured by using a Bradford method and UV method.

Substance	Structure change [1]	Tm (melting temperature) [1]	Percentage to wild-type EGF (CD signal value at 200 nm) [2]	Solubility ([3]; 1 mg in 1 ml 20 mM sodium phosphate pH 5.5, supernatant, Bradford and UV method)	Solubility (Comparison with wild-type %) ([3]; 20 mM sodium phosphate pH 5.5, relative to wild-type EGF)
D-34-1: EGF mutant, 34th valine substituted with serine (SEQ ID NO: 75) (NSDSECPLSHDGYCLHDGVCMYIEALDKYACNCSVGYIGERCQYRDLKWWELR; not fully specified; Epidermal growth factor; UniProt P01133 971-1023, looked up, variant V34S)	No change	(76° C.)			
D-38-12: EGF mutant, 38th isoleucine substituted with aspartic acid (SEQ ID NO: 86) (CNCVVGYDGE)	No change	(76° C.)			
D-34-2: EGF mutant, 34th valine substituted with glutamic acid (SEQ ID NO: 76) (NSDSECPLSHDGYCLHDGVCMYIEALDKYACNCEVGYIGERCQYRDLKWWELR; not fully specified; Epidermal growth factor; UniProt P01133 971-1023, looked up, variant V34E)	No change	(76° C.)	111.10%		
E-50-5: EGF mutant, 50th tryptophan substituted with histidine (SEQ ID NO: 92) (RCQYRDLKWHELR)	No change	(76° C.)			
B-19-5: EGF mutant, 19th valine substituted with lysine (SEQ ID NO: 70) (NSDSECPLSHDGYCLHDGKCMYIEALDKYACNCVVGYIGERCQYRDLKWWELR; not fully specified; Epidermal growth factor; UniProt P01133 971-1023, looked up, variant V19K)	No change	(76° C.)			
E-50-4: EGF mutant, 50th tryptophan substituted with serine (SEQ ID NO: 91) (RCQYRDLKWSELR)	No change	(76° C.)			
B-19-4: EGF mutant, 19th valine substituted with aspartic acid (SEQ ID NO: 69) (NSDSECPLSHDGYCLHDGDCMYIEALDKYACNCVVGYIGERCQYRDLKWWELR; not fully specified; Epidermal growth factor; UniProt P01133 971-1023, looked up, variant V19D)	No change	(76° C.)			
A-4-1: EGF mutant, fourth serine substituted with glutamic acid (SEQ ID NO: 62) (NSDEECPLSHDGYCLHDGVCMYIEALDKYACNCVVGYIGERCQYRDLKWWELR; not fully specified; Epidermal growth factor; UniProt P01133 971-1023, looked up, variant S4E)	No change	(76° C.)			
E-48-3: EGF mutant, 48th lysine substituted with arginine (SEQ ID NO: 90) (RCQYRDLRWWELR)	No change	(76° C.)			
D-38-11: EGF mutant, 38th isoleucine substituted with glutamic acid (SEQ ID NO: 85) (CNCVVGYEGE)	No change	(76° C.)			
B-19-2: EGF mutant, 19th valine substituted with serine (SEQ ID NO: 67) (NSDSECPLSHDGYCLHDGSCMYIEALDKYACNCVVGYIGERCQYRDLKWWELR; not fully specified; Epidermal growth factor; UniProt P01133 971-1023, looked up, variant V19S)	No change	(76° C.)			
D-34-3: EGF mutant, 34th valine substituted with aspartic acid (SEQ ID NO: 77) (NSDSECPLSHDGYCLHDGVCMYIEALDKYACNCDVGYIGERCQYRDLKWWELR; not fully specified; Epidermal growth factor; UniProt P01133 971-1023, looked up, variant V34D)	No change	(76° C.)			
A-8-2: EGF mutant, eighth leucine substituted with serine (SEQ ID NO: 63) (NSDSECPSSHDGYCLHDGVCMYIEALDKYACNCVVGYIGERCQYRDLKWWELR; not fully specified; Epidermal growth factor; UniProt P01133 971-1023, looked up, variant L8S)	No change	(76° C.)		699.1 µg/mL	137%
E-50-6: EGF mutant, 50th tryptophan substituted with glutamic acid (SEQ ID NO: 93) (RCQYRDLKWEELR)	No change	(76° C.)			
B-19-3: EGF mutant, 19th valine substituted with glutamic acid (SEQ ID NO: 68) (NSDSECPLSHDGYCLHDGECMYIEALDKYACNCVVGYIGERCQYRDLKWWELR; not fully specified; Epidermal growth factor; UniProt P01133 971-1023, looked up, variant V19E)	No change	(76° C.)	84.22%		
D-38-9: EGF mutant, 38th isoleucine substituted with serine (SEQ ID NO: 83) (CNCVVGYSGE)	No change	(76° C.)			
D-35-7: EGF mutant, 35th valine substituted with aspartic acid (SEQ ID NO: 81) (CNCVDGYIGE)	No change	(76° C.)			
C-26-2: EGF mutant, 26th leucine substituted with serine (SEQ ID NO: 73) (NSDSECPLSHDGYCLHDGVCMYIEASDKYACNCVVGYIGERCQYRDLKWWELR; not fully specified; Epidermal growth factor; UniProt P01133 971-1023, looked up, variant L26S)	No change	(76° C.)			
D-35-5: EGF mutant, 35th valine substituted with serine (SEQ ID NO: 79) (CNCVSGYIGE)	No change	(76° C.)			
D-35-8: EGF mutant, 35th valine substituted with lysine (SEQ ID NO: 82) (CNCVKGYIGE)	No change	(76° C.)			
D-35-6: EGF mutant, 35th valine substituted with glutamic acid (SEQ ID NO: 80) (CNCVEGYIGE)	No change	(76° C.)	100.14%		
D-34-4: EGF mutant, 34th valine substituted with lysine (SEQ ID NO: 78) (CNCKVGYIGE)	No change	(76° C.)			
A-8-3: EGF mutant, eighth leucine substituted with proline (SEQ ID NO: 64) (NSDSECPPSHDGYCLHDGVCMYIEALDKYACNCVVGYIGERCQYRDLKWWELR; not fully specified; Epidermal growth factor; UniProt P01133 971-1023, looked up, variant L8P)	No change	(76° C.)			
